Measurements as given in article PMC10673981.

Molecular target: retinal guanylate cyclase GC1, eGFP fusion (mGFP-GC1 cells) (human) (UniProt Q02846)
Chain of UniProt Q02846 (Q02846 52-1103): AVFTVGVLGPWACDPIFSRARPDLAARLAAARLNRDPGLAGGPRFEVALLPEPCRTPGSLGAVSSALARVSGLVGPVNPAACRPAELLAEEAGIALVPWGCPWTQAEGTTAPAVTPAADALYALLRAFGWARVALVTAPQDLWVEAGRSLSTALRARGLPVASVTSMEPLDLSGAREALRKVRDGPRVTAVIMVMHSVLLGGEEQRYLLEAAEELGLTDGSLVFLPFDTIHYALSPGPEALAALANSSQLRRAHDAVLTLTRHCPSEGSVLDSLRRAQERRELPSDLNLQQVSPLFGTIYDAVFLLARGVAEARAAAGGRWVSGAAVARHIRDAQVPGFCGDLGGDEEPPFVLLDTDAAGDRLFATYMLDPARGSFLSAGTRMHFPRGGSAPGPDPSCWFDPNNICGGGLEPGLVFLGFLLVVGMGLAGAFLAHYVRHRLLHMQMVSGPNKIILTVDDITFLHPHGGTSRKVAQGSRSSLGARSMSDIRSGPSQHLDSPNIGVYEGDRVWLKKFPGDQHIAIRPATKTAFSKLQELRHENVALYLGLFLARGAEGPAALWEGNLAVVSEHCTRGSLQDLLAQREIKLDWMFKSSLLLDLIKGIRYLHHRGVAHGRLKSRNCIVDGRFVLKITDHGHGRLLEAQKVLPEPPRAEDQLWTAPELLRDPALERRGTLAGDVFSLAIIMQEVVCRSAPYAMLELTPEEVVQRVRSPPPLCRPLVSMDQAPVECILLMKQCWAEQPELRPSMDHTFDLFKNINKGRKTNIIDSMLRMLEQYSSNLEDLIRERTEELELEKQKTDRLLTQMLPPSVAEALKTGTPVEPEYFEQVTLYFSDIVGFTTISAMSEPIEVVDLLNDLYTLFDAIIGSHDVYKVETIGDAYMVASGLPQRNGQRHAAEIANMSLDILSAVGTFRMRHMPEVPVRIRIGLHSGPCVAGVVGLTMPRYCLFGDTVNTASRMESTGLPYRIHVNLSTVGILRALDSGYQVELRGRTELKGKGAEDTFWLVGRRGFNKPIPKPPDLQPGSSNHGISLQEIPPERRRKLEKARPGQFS

Row | EC50: GCAP1 concentration (0–20 µM) at which cGMP synthesis by GC1 in HEK293 cell membranes is half-maximal, at low Ca2+ (< 19 nM) | Substance
1 | 1550 nM | E111V-GCAP1 (cone-rod dystrophy-associated variant of human GCAP1) (from UniProt P43080 1-201) (natural protein)
2 | 1880 nM | Human myristoylated WT-GCAP1 (guanylate cyclase-activating protein 1) (from UniProt P43080 1-201) (natural protein)
